Series [1] concerns KDM2A 1-747 (human). Nature of the series: SPR. To be noted: EMSA: 4% Ficoll 400, 20 mM Hepes pH 7.9, 150 mM KCl, 1 mM EDTA, 0.5 mM DTT, 25 ng/ul poly-dAdT, room temperature, 0.8% agarose gel 0.5x TBE 4 C; SPR: 10 mM ….
Series [2] has as its target T1, KDM2A ZF-CxxC domain (human, UniProt Q9Y2K7 544-648).
T1 sequence: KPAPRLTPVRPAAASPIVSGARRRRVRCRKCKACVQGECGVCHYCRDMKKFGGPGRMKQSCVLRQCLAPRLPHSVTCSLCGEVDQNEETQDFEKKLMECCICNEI
Nature of the series: EMSA; EMSA: 4% Ficoll 400, 20 mM Hepes pH 7.9, 150 mM KCl, 1 mM EDTA, 0.5 mM DTT, 25 ng/ul poly-dAdT, room temperature, 0.8% agarose gel 0.5x TBE 4 C; SPR: 10 mM Hepes pH 7.9, 150 mM NaCl, 1 mM DTT, further additive truncated in material, KDM2A 0-3 uM. Conditions: protein: recombinant; tags: His (pET30b); label: 32P 5' end; blunt. Background: In EMSA bound probe runs differently from free probe, usually more slowly.

As a reminder, the Kd is a measure of binding affinity in units of concentration. Turning to 75 bp probe, 1 CpG, in series [1], the dissociation constant Kd stood at 640 nM.

For 75 bp probe, 6 CpG, the equilibrium dissociation constant (Kd) in series [1] came out at 560 nM.

B1: short probe with two CpGs (dsDNA)
DNA 1: GTAGGCGGTGCTACACGGTTCCTGAAGTG
DNA 2: CACTTCAGGAACCGTGTAGCACCGCCTAC
On to B1, for which the binding result in series [2] is “binds”.

B2: short probe, CpGs methylated (dsDNA)
DNA 1: GTAGGCGGTGCTACACGGTTCCTGAAGTG
DNA 2: CACTTCAGGAACCGTGTAGCACCGCCTAC
modifications: CpG methylated (5mC); strands and method not stated
For the molecule B2, in series [2], the binding result is on record as “no binding”.

The record behind these values is publication PMC3098377, “CpG Islands Recruit a Histone H3 Lysine 36 Demethylase”.
